Assay [1] addresses T1, soluble cynomolgus monkey IL-6R (cynomolgus monkey, UniProt A0A2K5WN54 60-396).
T1 construct: extracellular domain; also called scyIL-6R; soluble cynomolgus monkey IL-6 Receptor; not shown: C-terminal His- or Avi-Tag
T1 sequence: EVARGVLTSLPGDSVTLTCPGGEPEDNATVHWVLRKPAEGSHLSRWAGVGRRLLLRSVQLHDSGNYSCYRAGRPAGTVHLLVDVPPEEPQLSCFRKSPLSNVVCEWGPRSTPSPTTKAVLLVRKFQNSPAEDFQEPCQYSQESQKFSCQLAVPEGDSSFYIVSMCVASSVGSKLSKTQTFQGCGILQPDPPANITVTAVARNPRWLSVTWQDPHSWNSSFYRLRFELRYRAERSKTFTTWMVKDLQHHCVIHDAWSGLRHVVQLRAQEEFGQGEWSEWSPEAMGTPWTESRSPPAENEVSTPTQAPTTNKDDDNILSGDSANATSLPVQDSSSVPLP
The assay can be described thus: SPR (Biacore 2000), mAb captured on anti-human IgG Fc, analyte in solution, 25 C, 1:1 Langmuir. Here is the method: (§1) A CM5 Biacore chip was used and 1640 RU (response units) of an anti-human IgG Fc (Biacore AB, Uppsala, Sweden) was immobilized by EDC/NHS chemistry. […] The surface was regenerated after each cycle by injection of 3M magnesium chloride at 20 μL/min, for 30 s followed by lmin of stabilization time in HBS-EP buffer (Biacore AB, Uppsala, Sweden). Binding was measured by passing analytes carrier-free soluble human IL-6R (shuIL6-R; R&D), soluble human IL-6Rc (shuIL-6Rc) and soluble cynomolgus monkey IL-6R (scyIL-6R) in duplicates at the following concentrations: 100 nM, 50 nM, 25 nM, 12.5 nM, 6.25 nM and 0nM. All solutions were diluted in HBS-EP buffer. Injection was performed at 50 μl/min for 3 min followed by 12 min of dissociation time and the temperature was set at 25° C.

The target in assay [2] is T2, carrier-free soluble human IL-6R (R&D) (human, UniProt P08887 20-365).
T2 construct: extracellular domain; also called shuIL-6R; shuIL6-R
T2 sequence (looked up): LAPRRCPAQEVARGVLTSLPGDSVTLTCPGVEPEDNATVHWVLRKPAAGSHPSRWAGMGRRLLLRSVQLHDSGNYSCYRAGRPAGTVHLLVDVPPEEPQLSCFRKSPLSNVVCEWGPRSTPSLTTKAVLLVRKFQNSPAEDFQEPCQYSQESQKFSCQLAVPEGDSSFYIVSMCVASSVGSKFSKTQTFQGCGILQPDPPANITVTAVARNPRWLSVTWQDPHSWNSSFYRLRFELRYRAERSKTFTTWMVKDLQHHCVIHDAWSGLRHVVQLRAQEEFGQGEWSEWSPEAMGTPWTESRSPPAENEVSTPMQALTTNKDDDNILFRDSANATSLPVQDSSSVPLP
The assay is described as above. Here is the method: as §1

For another assay, the target named is T3, FULLY MOUSE IL-6R (mouse, UniProt P22272).
T3 construct: also called chimeric receptor #5
T3 sequence (receptor chain, looked up): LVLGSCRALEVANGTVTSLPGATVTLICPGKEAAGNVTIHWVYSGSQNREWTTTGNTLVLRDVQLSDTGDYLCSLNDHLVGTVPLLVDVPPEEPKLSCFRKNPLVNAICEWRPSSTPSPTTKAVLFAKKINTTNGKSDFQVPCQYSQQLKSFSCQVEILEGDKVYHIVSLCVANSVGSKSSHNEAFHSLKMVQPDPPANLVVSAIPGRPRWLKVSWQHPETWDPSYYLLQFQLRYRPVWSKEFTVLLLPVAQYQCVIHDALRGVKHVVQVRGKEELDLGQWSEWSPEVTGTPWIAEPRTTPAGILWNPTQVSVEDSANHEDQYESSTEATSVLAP
Nature of the assay: flow cytometry on PEAK cells displaying the IL-6R variant, goat anti-human IgG Alexa Fluor 647. The source says:
(§2) An overlap extension PCR strategy was used to generate coding sequences specifying huIL-6R/mouseIL-6R chimeric proteins (FIG. 6A) and mouse IL-6R proteins containing human amino acid substitutions in D3 domains (FIG. 6B). Partially overlapping mutagenic oligonucleotide primers were used for PCR amplification of N- and C-terminal sequences on either side of huIL-6R/mouse IL-6R junctions or substituted regions, followed by gel isolation and annealing of the denatured PCR products. Full length PCR products were then digested by EcoRI and BglII and ligated into a pDISPLAY™ vector (Invitrogen). PEAK cells were grown in DMEM medium supplemented with 10% fetal calf serum and 4 mM L-glutamine. Cells were plated 12 to 24 h before transfection to have 40-50% confluency in 6 well plates. Transfections of pDISPLAY™ vectors (Invitrogen) were carried out by lipofection using TransIT® LT1 reagent (MirusBio) according manufacturer's specifications. Cells were grown for 48 h before harvesting and analysis by flow cytometry.
(§3) Cell surface staining was performed on PEAK cells displaying each variant of IL-6R and analyzed by flow cytometry (FIG. 6B-D). Cell surface expression of each chimeric IL-6R was assessed using an anti-human-CD126 PE or an anti-mouse CD126-PE antibody (BD Pharmingen).

Assay [3] concerns the target soluble human IL-6Rc (shuIL-6Rc) recombinant fusion protein of IL-6R and IL-6 (human) (UniProt P08887). Nature of the assay: SPR (Biacore 2000), mAb captured on anti-human IgG Fc, analyte in solution, 25 C, 1:1 Langmuir.
The target of the next assay is T4, MUTANT 4 (mouse, UniProt P22272).
T4 construct: also called mouse IL-6R with human residues in D3, mutant 4
T4 sequence (receptor chain, looked up): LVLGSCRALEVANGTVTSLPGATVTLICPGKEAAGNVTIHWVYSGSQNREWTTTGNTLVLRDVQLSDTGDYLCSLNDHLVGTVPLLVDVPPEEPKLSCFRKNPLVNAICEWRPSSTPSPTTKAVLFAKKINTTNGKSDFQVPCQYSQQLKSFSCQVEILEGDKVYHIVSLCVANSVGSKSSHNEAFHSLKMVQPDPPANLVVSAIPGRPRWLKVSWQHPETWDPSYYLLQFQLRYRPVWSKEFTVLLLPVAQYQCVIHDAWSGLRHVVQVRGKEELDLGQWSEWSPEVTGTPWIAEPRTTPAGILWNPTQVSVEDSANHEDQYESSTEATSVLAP
The assay can be described thus: flow cytometry on PEAK cells displaying the mutated mouse IL-6R, goat anti-human IgG Alexa Fluor 647.
Excerpt: as §2, §3

B1: NI-1201 wild type (NI-1201-WT) antibody (antibody, V domains shown)
VH: QVQLVQSGAEVKKPGSSVKVSCKASGGTFSSYAISWVRQAPGQGLEWMGGIIPLFDTTKYAQQFQGRVTITADESTSTAYMELSSLRSEDTAVFYCARDRDILTDYYPMGGMDVWGQGTTVTVSS
VL: AIQLTQSPSSLSASVGDRVTITCRASQGISSVLAWYQQKPGKAPKLLIYDASSLESGVPSRFSGSGSGTDFTLTISSLQPEDFATYYCQQSNSYPLTFGGGTKVEIKR
notes: Fully human monoclonal IgG (captured by anti-human IgG Fc in Biacore); also called 39B9 VL1
Regarding B1, the Kd in assay [1] came to 2.04 nM; in assay [2], 0.0567 nM; in assay [3] it was 5.64 nM. Further, the figures for the koff in assay [1], in assay [2] and in assay [3] were 0.000215 s⁻¹, 7.53e-05 s⁻¹ and 0.000243 s⁻¹, respectively. Also, the on-rate constant (kon) in assay [1] was 106000 M⁻¹ s⁻¹; in assay [2], 1.33e+06 M⁻¹ s⁻¹; in assay [3], 43100 M⁻¹ s⁻¹. The binding result in the assay with FULLY MOUSE IL-6R and in the assay with MUTANT 4 was “no binding” in each case.

The values above are taken from US20160130351A1 (NOVIMMUNE S A, published 2016).
